Values quoted from earlier work in article PMC6684861 (Traffic (Copenhagen, Denmark), 2018).

Test system: mouse embryonic fibroblasts
Settings: ref unpublished observations

B1: DNA polymerase λ (protein, UniProt Q9UGP5 1-575, looked up)
DNA polymerase lambda: MDPRGILKAFPKRQKIHADASSKVLAKIPRREEGEEAEEWLSSLRAHVVRTGIGRARAELFEKQIVQHGGQLCPAQGPGVTHIVVDEGMDYERALRLLRLPQLPPGAQLVKSAWLSLCLQERRLVDVAGFSIFIPSRYLDHPQPSKAEQDASIPPGTHEALLQTALSPPPPPTRPVSPPQKAKEAPNTQAQPISDDEASDGEETQVSAADLEALISGHYPTSLEGDCEPSPAPAVLDKWVCAQPSSQKATNHNLHITEKLEVLAKAYSVQGDKWRALGYAKAINALKSFHKPVTSYQEACSIPGIGKRMAEKIIEILESGHLRKLDHISESVPVLELFSNIWGAGTKTAQMWYQQGFRSLEDIRSQASLTTQQAIGLKHYSDFLERMPREEATEIEQTVQKAAQAFNSGLLCVACGSYRRGKATCGDVDVLITHPDGRSHRGIFSRLLDSLRQEGFLTDDLVSQEENGQQQKYLGVCRLPGPGRRHRRLDIIVVPYSEFACALLYFTGSAHFNRSMRALAKTKGMSLSEHALSTAVVRNTHGCKVGPGRVLPTPTEKDVFRLLGLPYREPAERDW
nuclear/cytosolic ratio in mouse embryonic fibroblasts: 8
